# Ends that are not written are not given here.
# Assays:
# [1] = target: T1, PKB (Homo sapiens, UniProt P31749); experiment: CACE: intracellular phosphorylation of PKB substrate in HT1080/PTEN cells; type: cell-based; conditions: 1 μM extracellular
# T1 construct: endogenous in cells; host or cells: HT1080 cells; HT1080/PTEN cells (engineered to over-express wild type PTEN, PKB itself not transfected)
# Description: Previous investigators developed cleavable PTD-cargo conjugates by engineering a disulfide linkage between the two domains (Stein, Weiss et al. 1999; Hallbrink, Floren et al. 2001). […] TAT(49-57)(SEQ ID NO:2) was conjugated via a disulfide bond to cysteines added to substrate peptides for CamKII (F-CamKII-C; SEQ ID NO:13) or PKB (F-PKB-C; SEQ ID NO:14), denoted F-CamKII-C-SS-TAT (SEQ ID NO:15) and F-PKB-C-SS-TAT (SEQ ID NO:16), respectively. The TAT(49-57)-Conjugated substrates were incubated with cells (HT1080 or HT1080/PTEN cells) and the contents of the cells were analyzed by the CACE. […]
# CACE has been previously described (Sims, Meredith et al. 1998; Meredith, Sims et al. 2000; Li, Wu et al. 2001). Briefly, cells were placed on an inverted fluorescence microscope stage (Diaphot 300, Nikon, Japan) and maintained at 37° C. with an objective heater (Bioptechs; Butler, Pa.) prior to lysis unless stated otherwise. […] Cells were always maintained in ECB when analyzed by the CACE.
# (§1) CE was performed as described (Sims, Meredith et al. 1998), with the following modifications. […] The loaded volume was calculated from Poiseulle's equation and from contributions by spontaneous fluid displacement and diffusion (Weinberger, 2000; Fishman, 1994; Crank, 1989). […] Analytes were detected by laser-induced fluorescence (Sims, Meredith et al. 1998). […]
# [2] = test system: HT1080 cells; experiment: CACE single-cell analysis: loading and release of cargo; type: cell-based, human
# [3] = target: T1, PKB; experiment: CACE: intracellular phosphorylation of PKB substrate in HT1080 cells; type: cell-based; conditions: cells with only two peaks
# Source text: Since the properties of F-PKB (SEQ ID NO:17) microinjected into HT1080 cells have been well characterized, experiments were undertaken to compare the fate of F-PKB-C loaded as F-PKB-C-SS-TAT (SEQ ID NO:16) into HT1080 cells to that of the microinjected F-PKB (SEQ ID NO:17). When microinjected, the percentage of phosphorylated F-PKB depended on the relative, steady-state levels of both the kinases and phosphatases. This observation is shown in electrophoretic traces from cells loaded with F-PKB-C-SS-TAT (1 μM) (FIG. 6). A single asterisk denotes the migration time of F-PKB, and a double asterisk denotes the migration time of phosphorylated F-PKB from cells on the day of the experiment.
# CACE has been previously described (Sims, Meredith et al. 1998; Meredith, Sims et al. 2000; Li, Wu et al. 2001). Briefly, cells were placed on an inverted fluorescence microscope stage (Diaphot 300, Nikon, Japan) and maintained at 37° C. with an objective heater (Bioptechs; Butler, Pa.) prior to lysis unless stated otherwise. The cells were continually washed with ECB maintained at 37° C. (unless otherwise indicated) with a flow rate of 1 ml/min and a total chamber volume of 0.5 ml. The inlet of a capillary (30 μm I.D., 360 μm O.D., 75 cm long) was positioned 10 μm above the cell. The inverted microscope was coupled to a pulsed Nd:YAG laser and a CE system (Sims, 1998). The CACE-based assay was performed as previously described (U, 2001; Meredith, 2000). Cells were always maintained in ECB when analyzed by the CACE.
# CE was performed as described (Sims, Meredith et al. 1998), with the following modifications. The inner walls of the capillaries (30 μm I.D., 360 μm O.D.) were coated with poly(acrylate) (Wang, Hu et al. 2003). The outlet of the capillary was held at a negative potential of 18-21 kV, and the inlet reservoir was held at ground potential. Under these conditions, the current through the capillary was typically ˜36 μA. Solutions of standards were loaded into the capillary by gravitational fluid flow. The loaded volume was calculated from Poiseulle's equation and from contributions by spontaneous fluid displacement and diffusion (Weinberger, 2000; Fishman, 1994; Crank, 1989). To estimate the number of moles of peptide in an unknown solution or within a cell, the peak area from the electrophoretic trace of the solution or the cell was compared to that of a standard of known concentration separated by electrophoresis on the same day. A 1 pL cell volume and 100% peptide recovery was assumed in calculating intracellular peptide concentration (Meredith, Sims et al. 2000; Sims, Meredith et al. 1998). Analytes were detected by laser-induced fluorescence (Sims, Meredith et al. 1998).
# Cells were incubated at room temperature for 5 minutes in 1% bovine serum albumin (BSA) in ECB, washed in ECB, and then incubated for 5 minutes at room temperature with a substrate conjugated to TAT(49-57). The cells were then washed with 1% BSA in ECB. Cells loaded with the disulfide conjugate were placed in supplement DMEM (10% FCS, 4 mM L-glutamine, 100 U/mL penicillin and 100 μg/mL streptomycin) and incubated at 37° C. in 5% CO2 for 20 minutes. Cells loaded with the photolabile conjugate were placed in supplemented DMEM and incubated at 37° C. in 5% CO2 for 10 minutes (unless stated otherwise) and were then illuminated with a UV light source for 10 seconds (a radiant energy/unit area of 2 kJ/m^2). The supplemented DMEM was exchanged and the cells were incubated another 10 minutes at 37° C. in 5% CO2. Just prior to analysis the cells were washed into ECB.
# [4] = test system: RBL cells; experiment: CACE single-cell analysis: loading and release of cargo; type: cell-based, rat; conditions: 750 nM extracellular
# [5] = target: T2, PKB (Rattus norvegicus, UniProt P47196); experiment: CACE: intracellular phosphorylation of PKB substrate in RBL cells; type: cell-based; conditions: 750 nM extracellular
# T2 construct: endogenous in cells; host or cells: RBL-2H3 rat basophilic leukemia cells, with or without PIP3-histone
# T2 sequence (P47196 whole entry): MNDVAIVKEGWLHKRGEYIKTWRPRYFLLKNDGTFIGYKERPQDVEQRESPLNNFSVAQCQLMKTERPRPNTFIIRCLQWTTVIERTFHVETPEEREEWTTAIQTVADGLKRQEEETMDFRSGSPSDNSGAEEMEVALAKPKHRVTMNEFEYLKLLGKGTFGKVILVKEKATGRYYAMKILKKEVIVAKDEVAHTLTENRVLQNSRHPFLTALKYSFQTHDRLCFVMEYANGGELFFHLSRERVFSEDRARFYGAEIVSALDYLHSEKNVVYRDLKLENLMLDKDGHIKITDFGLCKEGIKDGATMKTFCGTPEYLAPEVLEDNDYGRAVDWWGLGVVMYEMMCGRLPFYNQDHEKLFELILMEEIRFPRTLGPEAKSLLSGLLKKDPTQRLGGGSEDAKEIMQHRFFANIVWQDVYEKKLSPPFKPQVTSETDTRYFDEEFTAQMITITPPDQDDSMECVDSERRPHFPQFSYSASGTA
# Description: To determine whether the F-PKB-C delivered to cells by addition of F-PKB-C-SS-TAT (SEQ ID NO:16) at a 750 nM extracellular concentration could also be phosphorylated after pharmacologic activation of PKB (rather than constitutively active PKB), PIP3-histone was added to RBL cells. […] The CACE was used to analyze the amount of phosphorylated F-PKB-C in the presence (15 μM) and absence of PIP3-histone added for 10 min to RBL cells loaded with F-PKB-C-SS-TAT (FIG. 6C,D).
# CACE has been previously described (Sims, Meredith et al. 1998; Meredith, Sims et al. 2000; Li, Wu et al. 2001). Briefly, cells were placed on an inverted fluorescence microscope stage (Diaphot 300, Nikon, Japan) and maintained at 37° C. with an objective heater (Bioptechs; Butler, Pa.) prior to lysis unless stated otherwise. The cells were continually washed with ECB maintained at 37° C. (unless otherwise indicated) with a flow rate of 1 ml/min and a total chamber volume of 0.5 ml. […] Cells were always maintained in ECB when analyzed by the CACE.
# as §1
# [6] = target: T3, recombinant CamKII (Rattus norvegicus, UniProt P11275); experiment: In vitro kinase assay, 32P phosphate incorporation; type: biochemical; conditions: peptides 5-60 μM, 30° C., 30 minutes
# T3 construct: purchased Calbiochem (San Diego, Calif.) / EMD Biosciences (San Diego, Calif.)
# Description: In addition to assessing the electrophoretic behavior of F-CamKII-TAT, the ability of this conjugated sequence to act as an efficient substrate for the CamKII enzyme was characterized. The amount of phosphate incorporated into the substrate peptide alone and into F-CamKII-TAT by CamKII was measured in vitro. In the range of measured peptide concentrations, 90% less phosphate was incorporated by the CamKII enzyme into F-CamKII-TAT compared to the peptide lacking the TAT(49-57) sequence. The kinetic properties of CamKII enzyme for the CamKII peptide substrate were degraded when the peptide was conjugated to TAT(49-57).
# Peptides (5-60 μM) were phosphorylated in vitro by 100 units of recombinant CamKII (EMD Biosciences; San Diego, Calif.) in 20 mM Tris-HCl, 10 mM MgCl2, 0.5 mM dithiothreitol (DTT), and 0.1 mM Ethylenediaminetetraacetic acid-(EDTA, pH 7.5) with […], 2 mM CaCl2 and […] [[…]-^32P]-ATP. The final specific activity of the [[…]-^32P]-ATP was 100 cpm/pmole; the total reaction volume was 25 μL. The mixture was incubated at 30° C. for 30 minutes. The reaction was stopped by adding 45 μL ice-cold 10% (v/v) trichloroacetic acid, mixed with a vortex, centrifuged, and blotted onto P81 phosphocellulose paper. Phosphate incorporation was quantified with a liquid scintillation counter (LS 3801; Beckman Instruments; Irvine, Calif.)
# [7] = test system: Jurkat cells; experiment: Michaelis-Menten kinetics of cellular uptake; type: cell-based, human; conditions: 4° C. (on ice), Lineweaver-Burk plots, incubation 30-240 seconds
# Description: When cellular uptake of polymers of D- and L-arginine were analyzed by Michaelis-Menten kinetics (see Example 6), the rate of uptake by Jurkat cells was so efficient that precise Km values could only be obtained when the assays were carried out at 4° C. (on ice). Both the maximal rate of transport (Vmax) and the apparent affinity of the peptides for the putative receptor of the Michaelis constant (Km) were derived from Lineweaver-Burk plots of the observed fluorescence of Jurkat cells after incubation with varying concentrations of nonamers of D- and L-arginine for 30, 60, 120, and 240 seconds.
# [8] = test system: cells; experiment: Confocal microscopy of conjugate uptake; type: cell-based; conditions: same concentration for all conjugates
# Source text: The ability of the D- and L-arginine polymers to enhance trans-membrane transport was confirmed by confocal microscopy (see FIGS. 6A-F and Example 4).
# [9] = test system: F-CamKII-TAT (fluorescein-labeled CamKII substrate peptide conjugated to TAT(49-57) through a peptide bond)
# T1 sequence (P31749 whole entry): as the sequence (P47196 whole entry) above, with N2S, E46D, S50A, R112K, T117E, A137S, T389K, N410G, D415H counted along it
substance,measurement,setting,value
"Gly Arg Pro Arg Ala Ala Thr Phe Ala Glu Gly Cys Arg Lys Lys Arg Arg Gln Arg Arg Arg (Fluorescein-GRPRAATFAEGCRKKRRQRRR-NH2; not fully specified; printed as Gly Arg Pro Arg Ala Ala Thr Phe Ala Glu Gly Cys Arg Lys Lys Arg Arg Gln Arg Arg Arg; also: disulfide linkage between the PKB-Cys part and the TAT part (partner not shown)) [F-PKB-C-SS-TAT, F-PKB-C conjugated to TAT(49-57) via a disulfide bond]",peak of phosphorylated F-PKB-C,[1],no peak was present
same,average amount of detected F-PKB-C,[2]; 215 nM extracellular,2.5e-19 ± 3e-20 mol
same,cytosolic concentration of free F-PKB-C,[2]; 215 nM extracellular,~250 nM
same,detectable F-PKB-C per cell,[2]; 1 μM extracellular,7e-19 ± 3e-20 mol
same,cytosolic concentration of free F-PKB-C,"[2]; 1 μM extracellular, 1 pL cell volume assumed",~700 nM
same,peptide present as phosphorylated F-PKB-C,[3],75±8%
same,detectable F-PKB-C per cell,[4],1.4e-20 ± 1e-21 mol
same,intracellular concentration,[4],~14 nM
same,F-PKB-C phosphorylated,"[5]; PIP3-histone 15 μM 10 min, n=4",39%±14%
same,F-PKB-C phosphorylation,[5]; cells not exposed to PIP3-histone,no phosphorylation
"Lys Lys Ala Leu His Arg Gln Glu Thr Val Asp Ala Leu Arg Lys Lys Arg Arg Gln Arg Arg Arg (KKALHRQETVDALRKKRRQRRR-NH2; not fully specified (N-terminus); printed as Lys Lys Ala Leu His Arg Gln Glu Thr Val Asp Ala Leu Arg Lys Lys Arg Arg Gln Arg Arg Arg; also: fluorescein label, position not given here) [F-CamKII-TAT, F-CamKII conjugated to TAT(49-57) through a peptide bond]",less phosphate incorporated by CamKII compared to the peptide lacking the TAT(49-57) sequence,[6],90%
"RKKRRQRRR [TAT(49-57), basic region of HIV TAT protein, residues 49-57]",Km,[7],722 µM
same,Vmax,[7],0.38 µM/s
same,fluorescence of cytosol by confocal microscopy,[8],only weak staining
Recombinant calcium-calmodulin activated kinase II (CamKII),"phosphate incorporated into the peptide by CamKII in vitro (32P-ATP kinase assay), compared to the substrate peptide lacking TAT(49-57)",[9],90% less phosphate was incorporated by the CamKII enzyme into F-CamKII-TAT compared to the peptide lacking the TAT(49-57) sequence

# From patent US20050282239A1, “Cell-permeable enzyme activation reporter that can be loaded in a high throughput and gentle manner” (priority 2003, published 2005)
